Assay results reported in US6451982 (SCHERING, dated 2002).

T1: recombinant human interleukin-5 (human, UniProt P05113 20-134)
T1 sequence (looked up): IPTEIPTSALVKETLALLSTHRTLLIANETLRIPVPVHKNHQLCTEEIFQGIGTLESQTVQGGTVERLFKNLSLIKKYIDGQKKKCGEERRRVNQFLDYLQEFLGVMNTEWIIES


Columns and labels:
[1] = target: T1, recombinant human interleukin-5; assay: inhibition of binding of 0.5 nM radiolabeled human IL-5 to IL-5 receptor alpha chains on transfected COS cells
[2] = target: T1, recombinant human interleukin-5; assay: cell-based or functional assay
[3] = target: T1, recombinant human interleukin-5; assay: competition ELISA on plates coated with human IL-5; competitor biotinylated JES1-39D10
Protocol: Competition assays were carried out in which binding of the biotinylated antibody to plates coated with human IL-5 was measured in the presence of unlabelled antibody JES1-39D10 or antibody CMx5-1, CMX5-2 or CMX5-5, each of which had been purified by protein A/G affinity chromatography.
EIA plates were treated with 0.1 M NaHCO_3, pH 9.2, for 1 hour at room temperature. Human IL-5 in TBS was then added at […]. The plates were incubated overnight at 4° C. and then blocked with 3% BSA-TBS ml for 1 hour at room temperature. Fifty microliters of 2-fold serially diluted competing antibodies plus the appropriate amount of biotinylated antibody JES1-39D10 (also in a 50 μl volume) were added to each well, and the plates were incubated for 1 hour at room temperature.
The plates were then washed 5 times with TBS-Tween-20, incubated with 1 μg/ml horseradish peroxidase (HRP)-streptavidin conjugate for 1 hour at room temperature, washed 5 times with TBS-Tween-20, and developed with HRP substrate TMB. Absorbance of the samples was then measured spectrophotometrically at 450 nm.

[4] = target: T1, recombinant human interleukin-5; assay: captured antibody on plate, 125I-IL-5 binding, Scatchard analysis
Protocol: To determine whether the humanized antibodies retained the ability to specifically bind to human IL-5, apparent dissociation constants of antibody/antigen complexes were measured. This was done by coating enzyme immunoassay plates with mouse anti-human IgG_4-Fc (5 µg per ml, 100 ill per well) in 50 mM bicarbonate buffer, pH 9.5. The plates were then blocked at room temperature for 90 minutes with BLOTTO, washed 3 times, and incubated at 37° C. for 2 hours with one of the humanized antibodies, either purified (100 µl per well with a final concentration of 0.05 µg per ml) or in the form of conditioned medium (100 µl per well).
After the plates were washed 3 times, a dilution series of ^125I-labeled human IL-5 at concentrations between 4,000 pM and 2 pM was applied to the wells in each plate in final volumes of 100 µl. All test wells were run in triplicate. Background binding was determined by using a 1000-fold molar excess of unlablled human IL-5 in control wells. The reactions were allowed to equilibrate at room temperature for 2 hours, at which time the wells were aspirated and washed 5 times with TBST. The wells were then separated and counted in a Pharmacia LKB γ-counter. All nonspecific binding controls were run in duplicate. The values obtained for bound human IL-5 were subjected to Scatchard analysis (using RADLIG software) to obtain dissociation constant (kd) values.

IC50 [1]	IC50 (pM), inhibition of IL-5-induced CD11b expression on HL-60 cells [2]	IC50 CMX5/IC50 39D10, inhibition of IL-5-induced CD11b expression on HL-60 cells (fold against 39D10) [2]	MOLAR RATIO CMX5/IL-5, inhibition of IL-5-induced CD11b expression on HL-60 cells (molar ratio antibody:IL-5) [2]	molar ratio to biotinylated JES1-39D10 needed to produce the same degree of binding inhibition [3]	IC50 CMX5/IC50 39D10, inhibition of IL-5-induced CD11b expression on HL-60 cells [2]	MOLAR RATIO CMX5/IL-5, inhibition of IL-5-induced CD11b expression on HL-60 cells [2]	binding result [4]	Molecule
0.15 to 0.55 nM	166 pM	1	0.83	1 molar ratio				monoclonal antibody JES1-39D10
0.35 to 0.7 nM	467 pM			~1.4 molar ratio	2.8 fold against 39D10	2.3 molar ratio antibody:IL-5		humanized antibody CMX5-2 (antibody, V domains shown) VH: QVKLVQAGGGVVQPGRSLRLSCIASGFTFSSNSVNWIRQAPGKGLEWVALIWSNGDTDYNSAIKSRFTISRDNSKSTLYMQMNSLRTEDTAVYFCAREYYGYFDYWGQGVLVTVSS VL: DIQMTQSPSSLSVSVGDRVTITCLASEGISSYLAWYQQKPGLAPKLLIYGANSLQTGVPSRFSGSGSATDFTLTISSLQPEDIATYYCQQSYKFPNTFGQGTKVDVKR
							no binding	humanized antibody CMX5-4 (antibody, V domains shown, VH HIL minimal, VL LAY minimal) VH: QVKLVQAGGGVVQPGRSLRLSCIASGLSLTSNGMHWVRQAPGKGLEWVAVIWSNGSRTYYGDSVKGRFTISRDNSKRTLYMQMNSLRTEDTAVYYCAREYYGYFDYWGQGVLVTVSS VL: DIQMTQSPSSLSVSVGDRVTITCQASEGISSYLNWYQQKPGLAPKLLIYGANTREAGVPSRFSGSGSGTDFTLTISSLQPEDIATYYCQQSYKFPNTFGQGTKVDVKR
							binds	humanized antibody CMX5-3 (antibody, V domains shown, VH LAY maximal, VL LAY maximal) VH: EVQLLESGGGLVQPGGSLRLSCAVSGLSLTSNSVNWIRQAPGKGLEWVALIWSNGDTDYNSAIKSRFTISRNDSKNTLYLQMNGLQAEVSAIYFCAREYYGYFDYWGQGTLVTVSS VL: DIQMTQSPSSLSVSVGDRVTITCLASEGISSYLAWYQQKPGLAPKLLIYGANSLQTGVPSRFSGSGSATDFTLTISSLQPEDIATYYCQQSYKFPNTFGQGTKVDVKR
0.5 to 1.1 nM	800 pM			~1.4 molar ratio	4.8 fold against 39D10	4 molar ratio antibody:IL-5		humanized antibody CMX5-5 (antibody, V domains shown, Kabat CDRs only on HIL VH and LAY VL) VH: QVKLVQAGGGVVQPGRSLRLSCIASGFTFSSNSVNWVRQAPGKGLEWVALIWSNGDTDYNSAIKSRFTISRDNSKRTLYMQMNSLRTEDTAVYYCAREYYGYFDYWGQGVLVTVSS VL: DIQMTQSPSSLSVSVGDRVTITCLASEGISSYLAWYQQKPGLAPKLLIYGANSLQTGVPSRFSGSGSGTDFTFTISSLQPEDIATYYCQQSYKFPNTFGQGTKVDVKR
1.5 to 3 nM	1470 pM			~3.3 molar ratio	8.8 fold against 39D10	7.3 molar ratio antibody:IL-5		humanized antibody CMX5-1 (antibody, V domains shown, VH HIL maximal, VL LAY maximal; also called CMX1; antibody from clone CJA25) VH: QVKLVQAGGGVVQPGRSLRLSCIVSGLSLTSNSVNWIRQAPGKGLEWVALIWSNGDTDYNSAIKSRFTISRDNSKSTLYMQMNSLRTEDTAVYFCAREYYGYFDYWGQGVLVTVSS VL: DIQMTQSPSSLSVSVGDRVTITCLASEGISSYLAWYQQKPGLAPLLLIYGANSLQTGVPSRFSGSGSATDFTLTISSLQPEDIATYYCQQSYKFPNTFGQGTKVDVKR
